The test concerns the target T1, HLA-A*02:01 (human).
T1 construct: MHC monomers first loaded with a UV-sensitive peptide (not identified) that is cleaved and exchanged for the test peptide; captured on streptavidin-coated plates and detected with anti-β2m; also called peptide-receptive MHC molecules; MHC class I
The test is described as follows: UV-ligand exchange, anti-b2m ELISA; peptide exchange yield grade. The source says: Candidate peptides for T cell based therapies according to the present invention were further tested for their MHC binding capacity (affinity). The individual peptide-MHC complexes were produced by UV-ligand exchange, where a UV-sensitive peptide is cleaved upon UV-irradiation and exchanged with the peptide of interest as analyzed. Only peptide candidates that can effectively bind and stabilize the peptide-receptive MHC molecules prevent dissociation of the MHC complexes. To determine the yield of the exchange reaction, an ELISA was performed based on the detection of the light chain (β2m) of stabilized MHC complexes. The assay was performed as generally described in Rodenko et al. (Rodenko et al., 2006).
96 well MAXISorp plates (NUNC) were coated over night with 2 μg/ml streptavidin in PBS at room temperature, washed 4× and blocked for 1 h at 37° C. in 2% BSA containing blocking buffer. Refolded HLA-A*02:01/MLA-001 monomers served as standards, covering the range of 15-500 ng/ml. Peptide-MHC monomers of the UV-exchange reaction were diluted 100-fold in blocking buffer. Samples were incubated for 1 h at 37° C., washed four times, incubated with 2 μg/ml HRP conjugated anti-β2m for 1h at 37° C., washed again and detected with TMB solution that is stopped with […]. Absorption was measured at 450 nm. Candidate peptides that show a high exchange yield (preferably higher than 50%, most preferred higher than 75%) are generally preferred for a generation and production of antibodies or fragments thereof, and/or T cell receptors or fragments thereof, as they show sufficient avidity to the MHC molecules and prevent dissociation of the MHC complexes.

The values below come from US20220111022A1 (IMMATICS BIOTECHNOLOGIES, published 2022).

B1: ILFDLTHRV (peptide)
peptide: ILFDLTHRV
As for B1, the peptide exchange yield is at least 75%.

B2: ILDEAKDISF (peptide)
peptide: ILDEAKDISF
With B2, the peptide exchange yield lay within 50 to 75%.

B3: VIDSTLVKV (peptide)
peptide: VIDSTLVKV
Molecule B3 came in with a peptide exchange yield of 50 to 75%.

B4: KLLNDLTSI (peptide)
peptide: KLLNDLTSI
The molecule B4 registered a peptide exchange yield of at least 75%.

B5: FLDTSTADV (peptide)
peptide: FLDTSTADV
Molecule B5 came in with a peptide exchange yield of at least 75%.

B6: KLLDLTVRI (peptide)
peptide: KLLDLTVRI
Molecule B6 had a peptide exchange yield of at least 75%.

B7: SLYDFTGEQMAA (peptide)
peptide: SLYDFTGEQMAA
Turning to B7, the peptide exchange yield lay in the range of 50 to 75%.

B8: RLLEGDFSL (peptide)
peptide: RLLEGDFSL
Molecule B8 displayed a peptide exchange yield of at least 75%.

B9: VLDDTLVIF (peptide)
peptide: VLDDTLVIF
Regarding B9, the peptide exchange yield was in the range of 50 to 75%.

B10: RLLDTTDVYLL (peptide)
peptide: RLLDTTDVYLL
The molecule B10 registered a peptide exchange yield of at least 75%.

B11: FLNLFDHTL (peptide)
peptide: FLNLFDHTL
B11 came in with a peptide exchange yield of at least 75%.

B12: ILYDGSNIQL (peptide)
peptide: ILYDGSNIQL
In the case of B12, the peptide exchange yield is at least 75%.

B13: AIDDTAARL (peptide)
peptide: AIDDTAARL
Take B13: the peptide exchange yield was 50 to 75%.

B14: QLLGRDISL (peptide)
peptide: QLLGRDISL
For the molecule B14, the peptide exchange yield was at least 75%.

B15: AVFDQTVTVI (peptide)
peptide: AVFDQTVTVI
Molecule B15 registered a peptide exchange yield of 50 to 75%.

B16: SLRDGTEVV (peptide)
peptide: SLRDGTEVV
B16 had a peptide exchange yield of 50 to 75%.

B17: SLSDVSQAV (peptide)
peptide: SLSDVSQAV
B17: the peptide exchange yield fell in the range of 50 to 75%.

B18: ILDSTTIEI (peptide)
peptide: ILDSTTIEI
Molecule B18 came in with a peptide exchange yield of at least 75%.

B19: AIYHDITGISV (peptide)
peptide: AIYHDITGISV
For the molecule B19, the peptide exchange yield is 50 to 75%.

B20: SLLDGSESAKL (peptide)
peptide: SLLDGSESAKL
Turning to B20, the peptide exchange yield is at least 75%.

B21: YMDGTMSQV (peptide)
peptide: YMDGTMSQV
Turning to B21, the peptide exchange yield fell in the range of 50 to 75%.

B22: TLIDATWLV (peptide)
peptide: TLIDATWLV
On to B22, for which the peptide exchange yield is at least 75%.

B23: VLMDGTLKQV (peptide)
peptide: VLMDGTLKQV
As to B23, the peptide exchange yield was at least 75%.

B24: FVDEHTIDI (peptide)
peptide: FVDEHTIDI
The molecule B24 returned a peptide exchange yield of 50 to 75%.

B25: NLYNDLTNV (peptide)
peptide: NLYNDLTNV
For B25, the peptide exchange yield was in the range of 50 to 75%.

B26: FMNDRSFIL (peptide)
peptide: FMNDRSFIL
Molecule B26 returned a peptide exchange yield of at least 75%.

B27: SQDASLLKV (peptide)
peptide: SQDASLLKV
In the case of B27, the peptide exchange yield lay within 50 to 75%.

B28: WLIDKSMEL (peptide)
peptide: WLIDKSMEL
In turn, B28 registered a peptide exchange yield of at least 75%.

B29: ILFDDSVFTL (peptide)
peptide: ILFDDSVFTL
Consider B29, for which the peptide exchange yield was at least 75%.

B30: KTWDQSIAL (peptide)
peptide: KTWDQSIAL
B30 came in with a peptide exchange yield of at least 75%.

B31: FLLDGTDMFHM (peptide)
peptide: FLLDGTDMFHM
With B31, the peptide exchange yield was in the range of 50 to 75%.

B32: IQDTSHLAV (peptide)
peptide: IQDTSHLAV
Consider B32, for which the peptide exchange yield was in the range of 50 to 75%.

B33: ALPQFFNDV (peptide)
peptide: ALPQFFNDV
Consider B33, for which the peptide exchange yield is at least 75%.

B34: AVDGTDARL (peptide)
peptide: AVDGTDARL
Consider B34, for which the peptide exchange yield was 50 to 75%.

B35: ALYDSTRELL (peptide)
peptide: ALYDSTRELL
B35 returned a peptide exchange yield of at least 75%.

B36: YLFEDISQL (peptide)
peptide: YLFEDISQL
Consider B36, for which the peptide exchange yield was at least 75%.

B37: TLDITIVNL (peptide)
peptide: TLDITIVNL
The molecule B37 registered a peptide exchange yield of at least 75%.

B38: SLLFQDITL (peptide)
peptide: SLLFQDITL
On to B38, for which the peptide exchange yield is at least 75%.

B39: ALDDYTITF (peptide)
peptide: ALDDYTITF
Turning to B39, the peptide exchange yield is at least 75%.

B40: YVWDRTELL (peptide)
peptide: YVWDRTELL
In the case of B40, the peptide exchange yield is at least 75%.

B41: KLEERVYDV (peptide)
peptide: KLEERVYDV
B41 registered a peptide exchange yield of at least 75%.

B42: SLFDDSFSL (peptide)
peptide: SLFDDSFSL
Regarding B42, the peptide exchange yield is at least 75%.

B43: TLDATVVEL (peptide)
peptide: TLDATVVEL
The molecule B43 had a peptide exchange yield of at least 75%.

B44: KLISDMGKDVSA (peptide)
peptide: KLISDMGKDVSA
As to B44, the peptide exchange yield lay within 50 to 75%.

B45: FLGPIVDL (peptide)
peptide: FLGPIVDL
B45: the peptide exchange yield was at least 75%.

B46: LLDSTAHLL (peptide)
peptide: LLDSTAHLL
Regarding B46, the peptide exchange yield was at least 75%.

B47: QLMEKVQDV (peptide)
peptide: QLMEKVQDV
The molecule B47 yielded a peptide exchange yield of 50 to 75%.

B48: ALADLTGTVVNL (peptide)
peptide: ALADLTGTVVNL
The molecule B48 yielded a peptide exchange yield of at least 75%.

B49: SLDISLPNL (peptide)
peptide: SLDISLPNL
Turning to B49, the peptide exchange yield was at least 75%.

B50: ILTDITGHDV (peptide)
peptide: ILTDITGHDV
B50 registered a peptide exchange yield of 50 to 75%.

B51: YIYDGKDMSSL (peptide)
peptide: YIYDGKDMSSL
B51 had a peptide exchange yield of 50 to 75%.

B52: FLGEDISNFL (peptide)
peptide: FLGEDISNFL
The molecule B52 gave a peptide exchange yield of at least 75%.

B53: HMIDLTIHL (peptide)
peptide: HMIDLTIHL
For the molecule B53, the peptide exchange yield is 50 to 75%.

B54: NVDSTILNL (peptide)
peptide: NVDSTILNL
With B54, the peptide exchange yield is at least 75%.

B55: FLDQTDETL (peptide)
peptide: FLDQTDETL
In turn, B55 displayed a peptide exchange yield of 50 to 75%.

B56: HLCNHDVSL (peptide)
peptide: HLCNHDVSL
Regarding B56, the peptide exchange yield was at least 75%.

B57: SQTDLSPAL (peptide)
peptide: SQTDLSPAL
The molecule B57 showed a peptide exchange yield of at least 75%.

B58: GLVDGSSVTV (peptide)
peptide: GLVDGSSVTV
With B58, the peptide exchange yield was at least 75%.

B59: SLFAYPLPDV (peptide)
peptide: SLFAYPLPDV
The molecule B59 gave a peptide exchange yield of at least 75%.

B60: LLDATHQI (peptide)
peptide: LLDATHQI
Molecule B60 displayed a peptide exchange yield of at least 75%.
